Blank lines part the entries; values can stand above or below the binder they belong to.
Key:
[1] = biological target: GluA2 (modified calcium-permeable rat GluA2(Q) flip subunit, GluA2*) (rat)
[2] = biological target: GluA2–γ5 fusion construct (N terminus of γ5 covalently linked to the C terminus of GluA2) (rat | mouse) (UniProt Q8VHW4)
[3] = biological target: GluA2 (modified calcium-permeable rat GluA2(Q) flip subunit, GluA2*) (rat); remark: listed apart in the source
[4] = biological target: GluA2–γ5 fusion construct (N terminus of γ5 covalently linked to the C terminus of GluA2) (rat | mouse) (UniProt Q8VHW4); remark: listed apart in the source
[5] = biological target: GluA2 (modified calcium-permeable rat GluA2(Q) flip subunit, GluA2*) (rat); remark: listed apart in the source
[6] = biological target: GluA2–γ5 fusion construct (N terminus of γ5 covalently linked to the C terminus of GluA2) (rat | mouse) (UniProt Q8VHW4); remark: listed apart in the source
[7] = biological target: GluA2–γ5 fusion construct (N terminus of γ5 covalently linked to the C terminus of GluA2) (rat | mouse) (UniProt Q8VHW4); test: cryo-EM structure; complex co-purified from HEK293S GnTI− cells transduced with GluA2–γ5 (no antagonists in the medium) by the streptavidin affinity tag and SEC in 150 mM NaCl, 20 mM Tris pH 8.0, 0.005% CHS, 0.05% digitonin, 1 mM βME; grids with 100 µM ZK, no ligand (apo), 100 µM ZK + 100 µM PMP, or 10 mM Glu
[8] = biological target: GluA2 (modified calcium-permeable rat GluA2(Q) flip subunit, GluA2*) (rat); test: as above

deactivation time constant τDeact, whole-cell patch clamp, HEK293 cells cotransfected with GluA2 and wild-type human CNIH2, 2 ms 3 mM Glu, −60 mV [1]: 10.8 ms
deactivation time constant τDeact, whole-cell patch clamp, HEK293 cells cotransfected with GluA2–γ5 and wild-type human CNIH2, 2 ms 3 mM Glu, −60 mV [2]: 4.21 ms
stoichiometry N (CNIH2 subunits per GluA2–γ5 tetramer) [7]: 2
B1: cornichon-2 (CNIH2), endogenous human (natural protein)
chain: MAFTFAAFCYMLTLVLCASLIFFVIWHIIAFDELRTDFKNPIDQGNPARARERLKNIERICCLLRKLVVPEYSIHGLFCLMFLCAAEWVTLGLNIPLLFYHLWRYFHRPADGSEVMYDAVSIMNADILNYCQKESWCKLAFYLLSFFYYLYSMVYTLVSF
desensitization time constant τDes, whole-cell patch clamp, HEK293 cells cotransfected with GluA2 and wild-type human CNIH2, 500 ms 3 mM Glu, −60 mV [1]: 28 ms
desensitization time constant τDes, whole-cell patch clamp, HEK293 cells cotransfected with GluA2–γ5 and wild-type human CNIH2, 500 ms 3 mM Glu, −60 mV [2]: 14.8 ms
fraction of nondesensitized channels ISS/IMax, whole-cell patch clamp, HEK293 cells cotransfected with GluA2 and wild-type human CNIH2 [3]: 0.211
fraction of nondesensitized channels ISS/IMax, whole-cell patch clamp, HEK293 cells cotransfected with GluA2–γ5 and wild-type human CNIH2 [4]: 0.06
time constant of recovery from desensitization τRecDes, two-pulse protocol, HEK293 cells cotransfected with GluA2 and wild-type human CNIH2 [5]: 21.7 ms
time constant of recovery from desensitization τRecDes, two-pulse protocol, HEK293 cells cotransfected with GluA2–γ5 and wild-type human CNIH2 [6]: 36.8 ms

stoichiometry N (γ5 subunits per AMPAR tetramer) [8]: 2
B2: TARP γ5 (C-terminally truncated mouse subunit, Cacng5, residues S2-E207) (domain or fragment)
chain: SACGRKALTLLSSVFAVCGLGLLGIAVSTDYWLYLEEGIILPQNQSTEVKMSLHSGLWRVCFLAGEERGRCFTIEYVMPMNSQMTSESTVNVLKMIRSATPFPLVSLFFMFIGFILSNIGHIRPHRTILAFVSGIFFILSGLSLVVGLVLYISSINDEMLNRTKDAETYFNYKYGWSFAFAAISFLLTESAGVMSVYLFMKRYTAE
